Experimental data taken from US20260234121A1, “DERIVATIVES, IMMUNOGENS, AND ANTIBODIES AND USE OF THE SAME IN DETECTION OF ECSTASY-CLASS COMPOUNDS” (Siemens Healthcare Diagnostics Inc., priority 2023, published 2026).

Key:
[1] = Prototype EMIT ecstasy assay, cross-reactivity with methamphetamine; type: biochemical; settings: conjugate Compound 58; negative urine pool
[2] = system: E1-OVA (55); test: ELISA binding of hybridoma supernatant to E1-OVA (55) coated plates, without inhibitor; settings: hybridoma supernatant mixed with PBS alone
Experimental: All ELISA steps were performed at rt. Wells of a Nunc Maxi-Sorp™ flat-bottom ELISA plates (ThermoFisher Scientific, Waltham, MA) were coated with 50 μL E1-OVA (55), E2-OVA (65), and E3-OVA (72) at a concentration of 1 μg/mL in PBS for 1 h. The plates were flicked dried and remaining binding sites were blocked with 200 μL per well of blocking solution (0.5% casein, 0.05% (v/v) Tween 20 in PBS) for one hour. Plates were washed six times with MilliQ water containing 0.05% (v/v) Tween 20 on Biotek 405 LS plate washer equipped with microplate Biostacker 3 (Biotek, Winooski, VT). 50 μL of serially diluted antibody samples (serial dilutions of serum, hybridoma supernatant, or monoclonal antibodies in PBS) were added to each well and incubated for one hour. Unbound antibodies were removed by washing as described above, and 50 μL of secondary goat anti-rabbit IgG HRP or goat anti-mouse IgG (Fc)-HRP conjugate (ThermoFisher Scientific, USA), diluted 1:3,000 in the blocking solution was added to each well for detection bound rabbit or mouse antibody, respectively. Plates were incubated for one hour, washed and 100 μL of TMB substrate (Moss, Pasadena, MD) was added for 15 min to determine bound peroxidase. Optical density (OD) of the samples at 650 nm was measured using an ELISA plate reader (Molecular Devices LLC., San Jose, CA). The titer of each serum sample was designated as the maximum dilution that yielded at least twice the absorbance of the same dilution of the nonimmune control serum.
The supernatants were screened in a competitive ELISA for the presence of anti-ecstasy compound monoclonal antibodies (mAbs) as follows. 25 μL of the hybridoma supernatant was mixed with equal volume of PBS alone or containing 20 μg/mL inhibitor (MDA or MDMA) were incubated for 1 h in the wells of E1-OVA (55) coated ELISA plates. The plates were washed and the presence of bound mAbs were detected using goat anti-mouse IgG (Fc)-HRP conjugate and TMB substrate as described above. The level of inhibition of mAb/E1-OVA (55) binding in the presence of the inhibitor was estimated using a Percent (%) Inhibition calculated by the below formula:
[formula] • where “OD650 nm w/o Inhibitor” is the binding response of the antibody sample diluted in PBS alone (with no inhibitor), and the “OD650 nm with Inhibitor” is the binding response of the same antibody sample in the presence of 10 μg/mL of inhibitor (i.e., MDA or MDMA). […]

[3] = Prototype EMIT ecstasy assay, cross-reactivity with amphetamine; type: biochemical; settings: conjugate Compound 58; negative urine pool

Molecule	Concentrations (μg/mL) of Structurally Related Compounds Equivalent to 500 ng/mL MDMA Cutoffs, (+/−) mAmph [1]	E1-OVA (55) Binding, OD650 nm w/o inhib [2]	Concentrations (μg/mL) of Structurally Related Compounds Equivalent to 500 ng/mL MDMA Cutoffs, (+/−) Amph [3]
178F 4H5 mAb: mouse monoclonal antibody raised against E1-KLH (56); IgG2a, κ; heavy chain SEQ ID NO 81, light chain SEQ ID NO 105 (antibody) heavy: MNFGLSLIFLALILKGVQCEVQLVESGGDLVQPGGSLILSCVASGFTFRNYVMSWIRQTPDKRLEWVATINSGGSYTYYPDTVKGRFTISRDNAKSTLYLQMSSLKSEDTAMYYCASGNFLDYWGQGTSVTVSSAKTTPPSVYPLAPGSAAQTNSMVTLGCLVKGYFPEPVTVTWNSGSLSSGVHTFPAVLQSDLYTLSSSVTVPSSTWPSQTVTCNVAHPASSTKVDKKIVPRDCGCKPCICTVPEVSSVFIFPPKPKDVLTITLTPKVTCVVVDISKDDPEVQFSWFVDDVEVHTAQTKPREEQINSTFRSVSELPIMHQDWLNGKEFKCRVNSAAFPAPIEKTISKTKGRPKAPQVYTIPPPKEQMAKDKVSLTCMITNFFPEDITVEWQWNGQPAENYKNTQPIMDTDGSYFVYSKLNVQKSNWEAGNTFTCSVLHEGLHNHHTEKSLSHSPGK light: MRFSAQLLGLLVLWIPGSTADIVMTQAAFSNPVTLGTSASISCRSSKSLLNSYGITYLYWYLQKPGQSPQLLIYQMSNLASGVPDRFSSSGSGTDFTLRISRVEAEDVGVYYCGQDLELPYTFGSGTQLEIKRADAAPTVSIFPPSSEQLTSGGASVVCFLNNFYPKDINVKWKIDGSERQNGVLNSWTDQDSKDSTYSMSSTLTLTKDEYERHNSYTCEATHKTSTSPIVKSFNRNEC	30 to 40 µg/mL	2.948 OD650 nm	30 µg/mL
178F 4C12 mAb: mouse monoclonal antibody raised against E1-KLH (56); IgG1, κ; heavy chain SEQ ID NO 80, light chain SEQ ID NO 104 (antibody) heavy: MNFGLSLIFLALILKGVQCEVQLVESGGDLVKPGGSLKLSCAASGFTFSRFVMSWVRQTPDKRLEWVATISSGGIHTYYLDSVKGRVTIFRDNAKNTLYLQMSSLESEDTAMYYCAAGNALDYWGQGTSVTVSSAKTTAPSVYPLAPVCGGTTGSSVTLGCLVKGYFPEPVTLTWNSGSLSSGVHTFPALLQSGLYTLSSSVTVTSNTWPSQTITCNVAHPASSTKVDKKIEPRVPITQNPCPPLKECPPCAAPDLLGGPSVFIFPPKIKDVLMISLSPMVTCVVVDVSEDDPDVQISWFVNNVEVHTAQTQTHREDYNSTLRVVSALPIQHQDWMSGKEFKCKVNNRALPSPIEKTISKPRGPVRAPQVYVLPPPAEEMTKKEFSLTCMITGFLPAEIAVDWTSNGRTEQNYKNTATVLDSDGSYFMYSKLRVQKSTWERGSLFACSVVHEGLHNHLTTKTISRSLGK light: MRFSAQLLGLLVLWIPGSTADIVMTQAAFSNPVTLGTSGSVSCRSSKSLLHSNGITYLYWYLQKPGQSPQLLIYQMSNLASGVPDRFSSTGSGTDFTLRISRVEAEDVGVYYCGQDLELPYSFGSGTKLEIKRADAAPTVSIFPPSSEQLTSGGASVVCFLNNFYPKDINVKWKIDGSERQNGVLNSWTDQDSKDSTYSMSSTLTLTKDEYERHNSYTCEATHKTSTSPIVKSFNRNEC	40 to 50 µg/mL	2.836 OD650 nm	40 to 45 µg/mL
